Experimental data: patent publication US20230257435A1, “Wound Healing Composition and Uses Thereof” (AGENCY FOR SCIENCE, TECHNOLOGY AND RESEARCH, priority 2020, published 2023)

What was measured:
[1] = test system: MMP12; assay: MMP12 activity assay (gelatin and casein zymography); type: cell-based, human; settings: Agrin silenced keratinocytes, increasing dose of sAgrin 24 h
Protocol: MMP12 activity were monitored via Gelatin and Casein zymography as per previously published protocols. Briefly, control or Agrin depleted HaCaT cells were grown till 80-90% confluency in media without FBS. Supernatants collected from each culture dish were spun down at 10,000 rpm for 5 min and concentrated using Amicon ultra columns. Twenty microliter of medium was mixed with 2×SDS loading buffer and loaded on 10% gelatin or casein gel. The gels were washed with incubation buffer and subsequently stained with Coomassie Brilliant Blue for 1 h. The gels were de-stained for 30 min before imaging using a Chemidoc imager.

[2] = test system: mouse skin explants; assay: Mouse skin explant assay (keratinocyte outgrowth); type: cell-based
Protocol: Three days old ICR strain mouse pups were sacrificed and the hind skin on either side of the midline in the shoulder region was washed in 70% ethanol and excised using scalpel. The excised skin was washed in 70% ethanol and placed (dermis side down) on the pre-made gel substrates of defined stiffness, either in the absence or presence of 20 μg/ml sAgrin. The explants were allowed to adhere for 2 h before adding the keratinocyte culture medium (DMEM) containing 300 μM Ca^2+ as described previously^31. The keratinocyte outgrowth and the skin tissues regularly imaged under an Axiovert-200 inverted microscope and were subsequently fixed in 4% paraformaldehyde and immunostained for Keratin 17 antibody.
Tissue culture plates were coated with Col-T-gel (Fischer Scientific) of stiffness ranging from 0.8 KPa (soft) to 30 KPa (stiff) as per manufacturer recommendations and allowed to solidify for 40 min at 37° C. inside tissue culture incubators. Some experiments were performed with cells seeded on the poly-hydrogel plates of defined stiffness: 0.2 kPa and 16 kPa soft and hard polyhydrogels, respectively (CytoSoft, Advanced Biomatrix, Inc.,). The determination of stiffness of silicone substrates were done by the manufacturer as per previously published protocols. For certain experiments, indicated amounts of sAgrin was incorporated into the 0.8 KPa collagen gels before gelation process. Upon gelation, trypsinized cells or excised mouse skin explants were plated onto the gels of different stiffness either alone or containing sAgrin. The cells/tissues were incubated under standard culture condition with 500 μl recommended culture medium for the indicated days. The crossbow shaped micropatterns with fibronectin coated islands were generated by microlithography on a 19.5×19.5 mm coverslide from Cytoo, Inc., France. The micropatterns had surface areas of 800μ^2 or 1600μ^2, respectively. Fifty thousand cells after initial siRNA treatment was placed on the micropatterns for 4-6 h before processing them for immunofluorescence. […]

[3] = test system: primary mouse keratinocytes; assay: BrDu proliferation assay of mouse keratinocytes; type: cell-based; settings: increasing concentrations of sAgrin
Protocol: (a) The protein sequence of the C-terminal Agrin fragment used as bio-additive. Gel-filtration profile of purified sAgrin. The recombinant sAgrin were tested in a Coomassie stained gel and by Western blot using an Agrin antibody. (b) BrDu proliferation assay of mouse keratinocytes cells treated with increasing concentrations of sAgrin for the indicated days (n=3 experiments, Students ‘t’ test, **p=0.001 and *p=0.01, respectively). (c) HaCaT/mouse keratinocytes cells treated with increasing doses of sAgrin were subjected to scratch wound assay. Representative bright-field images are shown at indicated times post-wounding. Scale bar: 20 μm. The resulting uncovered wound area presented as mean+/−s.d. was quantified using ImageJ (n=3, Students ‘t’ test, *p<0.01). (d) Untreated or sAgrin (10 μg/ml) HaCaT cells were scratched and allowed to migrate for 4 h. […] The relative diameter of wounds presented as mean+/−s.d. was measured on indicated days and represented graphically from one experiment (n=3 mice per group, One-way ANOVA, *p<0.04, **p<0.004, respectively). […] The degree of proliferating cells were quantified using ImageJ (n=3 sections analyzed from two independent mice wounds, Students ‘t’ tests, *p=0.01). […] The quantification of individual types of collagen fibers were done using ImageJ (n=3 sections analyzed per group, Students ‘t’ test, *p=0.01 and 0.05, respectively).

B1: sAgrin: C-terminus recombinant Agrin fragment containing 8 amino acid 'Z8' insert and LG3 domain (SEQ ID NO: 7), His-tagged, expressed in E. coli (protein)
chain: DTLAFDGRTFVEYLNAVTESELANEIPVEKALQSNHFELSLRTEATQGLVLWSGKATERADYVALAIVDGHLQLSYNLGSQPVVLRSTVPVNTNRWLRVVAHREQREGSLQVGNEAPVTGSSPLGATQLDTDGALWLGGLPELPVGPALPKAYGTGFVGCLRDVVVGRHPLHLLEDAVTKPELRPCPTP
modifications: His tag
- MMP12 gelatin and casein degradation catalytic activity [1]: restored by sAgrin supplementation in a dose-dependent pattern
- keratinocyte outgrowth on soft substrates ([2]; soft ECM, 20 μg/ml sAgrin, day 5): significantly enhanced keratinocyte outgrowth
- keratinocyte outgrowth of Agrin depleted explants on stiff substrates ([2]; stiff ECM with 20 μg/ml sAgrin): exhibited higher keratinocyte outgrowth
- proliferation (BrDu incorporation) [3]: supported the proliferation of primary mouse keratinocytes
